Measurements as given in patent US20230144192A1 (Sanofi, published 2023).

Target: FcRn (UniProt P55899 24-297; P61769 21-119, limits assumed)
Assay: method not described; PBPK model input at pH 6.0, source given as 'Unpublished data'

Chain of FcRn (P55899 24-297 limits assumed, form in doubt, chain 1 of 2): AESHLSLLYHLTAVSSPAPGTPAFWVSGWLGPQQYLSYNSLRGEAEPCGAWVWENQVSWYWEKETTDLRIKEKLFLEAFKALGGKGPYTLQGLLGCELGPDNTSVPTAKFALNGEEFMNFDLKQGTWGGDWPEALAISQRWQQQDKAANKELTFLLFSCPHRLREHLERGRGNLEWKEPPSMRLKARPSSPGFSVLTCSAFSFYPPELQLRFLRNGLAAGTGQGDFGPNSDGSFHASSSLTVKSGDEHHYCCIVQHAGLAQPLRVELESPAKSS
Chain of FcRn (P61769 21-119 limits assumed, form in doubt, chain 2 of 2): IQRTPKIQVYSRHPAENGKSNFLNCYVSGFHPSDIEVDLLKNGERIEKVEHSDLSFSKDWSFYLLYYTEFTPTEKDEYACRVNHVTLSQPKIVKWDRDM

B1: Ab1 (antibody, human IgG4 S228P, kappa)
heavy: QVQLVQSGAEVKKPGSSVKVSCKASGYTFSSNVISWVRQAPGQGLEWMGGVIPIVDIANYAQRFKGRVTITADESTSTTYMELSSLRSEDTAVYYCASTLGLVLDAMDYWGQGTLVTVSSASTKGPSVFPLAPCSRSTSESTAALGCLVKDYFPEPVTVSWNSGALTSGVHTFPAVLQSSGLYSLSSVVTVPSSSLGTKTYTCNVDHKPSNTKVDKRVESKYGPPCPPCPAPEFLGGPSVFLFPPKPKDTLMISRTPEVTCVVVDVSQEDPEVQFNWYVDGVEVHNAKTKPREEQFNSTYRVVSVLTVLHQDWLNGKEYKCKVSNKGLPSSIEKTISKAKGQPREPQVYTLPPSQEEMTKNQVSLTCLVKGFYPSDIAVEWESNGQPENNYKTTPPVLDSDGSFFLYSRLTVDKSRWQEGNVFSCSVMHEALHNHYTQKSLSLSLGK
light: ETVLTQSPGTLSLSPGERATLSCRASQSLGSSYLAWYQQKPGQAPRLLIYGASSRAPGIPDRFSGSGSGTDFTLTISRLEPEDFAVYYCQQYADSPITFGQGTRLEIKRTVAAPSVFIFPPSDEQLKSGTASVVCLLNNFYPREAKVQWKVDNALQSGNSQESVTEQDSKDSTYSLSSTLTLSKADYEKHKVYACEVTHQGLSSPVTKSFNRGEC
notes: Human IgG4 (S228P, Eu numbering) / kappa anti-TGF-beta antibody; also called GC2008; copies: 2 + 2
Kd: 1400 nM
